Reference: patent US20170183403A1 (UNIVERSIT T Z RICH, published 2017)

Columns and labels:
Assay in all cases: peptide microarray (RepliTope), 15-mers
Reference peptide no. 32 = molecular target: T1, Reference peptide no. 32
T1 construct: hIL-2 15-mer, first library, parental Cys replaced by Ser, on microarray; also called peptide 32
T1 peptide: LELKGSETTFMSEYA
Experimental: (§1) Additional incubations are with unrelated antibodies from the same isotype (mouse control IgG2a/lambda and mouse control IgG2a/kappa), and secondary antibodies (anti-mouse IgG (Thermo 84545, label DL650) or anti-mouse IgG (JIR 115-175-072, Label Cy5)) to assess unspecific binding due to the detection antibody. The experiments are performed essentially as described in Maksimov P, et al. 2012, PLoS One 7:e34212. doi:10.1371/journal. pone. 0034212.
(§2) The determination of peptide-antibody binding was performed by RepliTope-analysis where the peptide microarray (triplicate) was incubated with the primary antibody followed by a fluorescently labelled secondary antibody directed against the Fc-part of the primary one. All steps were performed on a TECAN microarray processing station enabling highly reliable and reproducible washing and incubation steps. After performing the incubation steps and subsequent to the final washing steps (to remove the unbound secondary antibodies) the microarrays were dried using a nitrogen stream and scanned in a high resolution microarray scanning system with appropriate wavelength settings. Control incubations were performed with an unrelated antibody having the same isotype to exclude false positive signals.
(§3) The resulting images were analyzed und quantified using spot-recognition software GenePix (Molecular Devices). For each spot, the mean signal intensity was extracted (between 0 and 65535 arbitrary units). For further data evaluation, the MMC2 values were determined. The MMC2 equals the mean value of all three instances on the microarray. Except the coefficient of variation (CV)—standard-deviation divided by the mean value—is larger 0.5, in this case the mean of the two closest values (MC2) is assigned to MMC2.

Reference peptide no. 29 = molecular target: T2, Reference peptide no. 29
T2 construct: hIL-2 15-mer, first library, on microarray; also called peptide 29
T2 peptide: LISNINVIVLELKGS
Experimental: as §1, §2, §3

Reference peptide no. 47 = molecular target: T3, Reference peptide no. 47
T3 construct: second library: peptide 11 with Y(65) to Ala; also called peptide 47
T3 peptide: YKNPKLTRMLTFKFA
Experimental: as §1, §2, §3

Reference peptide no. 4 = molecular target: T4, Reference peptide no. 4
T4 construct: hIL-2 15-mer, first library, on microarray; also called peptide 4
T4 peptide: TQLQLEHLLLDLQMI
Experimental: as §1, §2, §3

Reference peptide no. 60 = molecular target: T5, Reference peptide no. 60
T5 construct: second library: peptide 24 with its first Leu replaced by Ala as printed (by count this is L90, not L92); also called peptide 60
T5 peptide: ANLAQSKNFHLRPRD
Experimental: as §1, §2, §3

Reference peptide no. 42 = molecular target: T6, Reference peptide no. 42
T6 construct: second library: peptide 10 with F(62) to Ala; also called peptide 42
T6 peptide: INNYKNPKLTRMLTA
Experimental: as §1, §2, §3

Reference peptide no. 20 = molecular target: T7, Reference peptide no. 20
T7 construct: hIL-2 15-mer, first library, parental Cys replaced by Ser, on microarray; also called peptide 20
T7 peptide: SLEEELKPLEEVLNL
Experimental: as §1, §2, §3

Reference peptide no. 14 = molecular target: T8, Reference peptide no. 14
T8 construct: hIL-2 15-mer, first library, on microarray; also called peptide 14
T8 peptide: LTFKFYMPKKATELK
Experimental: as §1, §2, §3

Reference peptide no. 11 = molecular target: T9, Reference peptide no. 11
T9 construct: hIL-2 15-mer, first library, on microarray; also called peptide 11
T9 peptide: YKNPKLTRMLTFKFY
Experimental: as §1, §2, §3

Reference peptide no. 52 = molecular target: T10, Reference peptide no. 52
T10 construct: second library: peptide 11 with F(62) and Y(65) to Ala; also called peptide 52
T10 peptide: YKNPKLTRMLTAKFA
Experimental: as §1, §2, §3

Reference peptide no. 22 = molecular target: T11, Reference peptide no. 22
T11 construct: hIL-2 15-mer, first library, on microarray; also called peptide 22
T11 peptide: KPLEEVLNLAQSKNF
Experimental: as §1, §2, §3

Reference peptide no. 2 = molecular target: T12, Reference peptide no. 2
T12 construct: hIL-2 15-mer, first library, on microarray; also called peptide 2
T12 peptide: SSSTKKTQLQLEHLL
Experimental: as §1, §2, §3

Reference peptide no. 3 = molecular target: T13, Reference peptide no. 3
T13 construct: hIL-2 15-mer, first library, on microarray; also called peptide 3
T13 peptide: TKKTQLQLEHLLLDL
Experimental: as §1, §2, §3

Reference peptide no. 8 = molecular target: T14, Reference peptide no. 8
T14 construct: hIL-2 15-mer, first library, on microarray; also called peptide 8
T14 peptide: QMILNGINNYKNPKL
Experimental: as §1, §2, §3

Reference peptide no. 9 = molecular target: T15, Reference peptide no. 9
T15 construct: hIL-2 15-mer, first library, on microarray; also called peptide 9
T15 peptide: LNGINNYKNPKLTRM
Experimental: as §1, §2, §3

Reference peptide no. 7 = molecular target: T16, Reference peptide no. 7
T16 construct: hIL-2 15-mer, first library, on microarray; also called peptide 7
T16 peptide: LDLQMILNGINNYKN
Experimental: as §1, §2, §3

Reference peptide no. 16 = molecular target: T17, Reference peptide no. 16
T17 construct: hIL-2 15-mer, first library, parental Cys replaced by Ser, on microarray; also called peptide 16
T17 peptide: MPKKATELKHLQSLE
Experimental: as §1, §2, §3

Reference peptide no. 26 = molecular target: T18, Reference peptide no. 26
T18 construct: hIL-2 15-mer, first library, on microarray; also called peptide 26
T18 peptide: KNFHLRPRDLISNIN
Experimental: as §1, §2, §3

Reference peptide no. 31 = molecular target: T19, Reference peptide no. 31
T19 construct: hIL-2 15-mer, first library, parental Cys replaced by Ser, on microarray; also called peptide 31
T19 peptide: VIVLELKGSETTFMS
Experimental: as §1, §2, §3

Reference peptide no. 33 = molecular target: T20, Reference peptide no. 33
T20 construct: hIL-2 15-mer, first library, parental Cys replaced by Ser, on microarray; also called peptide 33
T20 peptide: KGSETTFMSEYADET
Experimental: as §1, §2, §3

Reference peptide no. 24 = molecular target: T21, Reference peptide no. 24
T21 construct: hIL-2 15-mer, first library, on microarray; also called peptide 24
T21 peptide: LNLAQSKNFHLRPRD
Experimental: as §1, §2, §3

Reference peptide no. 49 = molecular target: T22, Reference peptide no. 49
T22 construct: second library: peptide 13 with Y(65) to Ala; also called peptide 49
T22 peptide: TRMLTFKFAMPKKAT
Experimental: as §1, §2, §3

Reference peptide no. 23 = molecular target: T23, Reference peptide no. 23
T23 construct: hIL-2 15-mer, first library, on microarray; also called peptide 23
T23 peptide: EEVLNLAQSKNFHLR
Experimental: as §1, §2, §3

Reference peptide no. 50 = molecular target: T24, Reference peptide no. 50
T24 construct: second library: peptide 14 with Y(65) to Ala; also called peptide 50
T24 peptide: LTFKFAMPKKATELK
Experimental: as §1, §2, §3

binding result (Reference peptide no. 32): no binding
binding result (Reference peptide no. 29): no binding
binding result (Reference peptide no. 47): no binding
binding result (Reference peptide no. 4): no binding
binding result (Reference peptide no. 60): no binding
binding result (Reference peptide no. 42): no binding
binding result (Reference peptide no. 20): no binding
binding result (Reference peptide no. 14): no binding
binding result (Reference peptide no. 11): no binding
binding result (Reference peptide no. 52): no binding
binding result (Reference peptide no. 22): no binding
binding result (Reference peptide no. 2): no binding
binding result (Reference peptide no. 3): no binding
binding result (Reference peptide no. 8): no binding
binding result (Reference peptide no. 9): no binding
binding result (Reference peptide no. 7): no binding
binding result (Reference peptide no. 16): no binding
binding result (Reference peptide no. 26): no binding
binding result (Reference peptide no. 31): no binding
binding result (Reference peptide no. 33): no binding
binding result (Reference peptide no. 24): no binding
binding result (Reference peptide no. 49): no binding
binding result (Reference peptide no. 23): no binding
binding result (Reference peptide no. 50): no binding
B1: NARA1 (antibody, mouse IgG2a, kappa, V domains shown)
VH: QVQLQQSGAELVRPGTSVKVSCKASGYAFTNYLIEWVKQRPGQGLEWIGVINPGSGGTNYNEKFKGKATLTADKSSSTAYMQLSSLTSDDSAVYFCARWRGDGYYAYFDVWGAGTTVTVSS
VL: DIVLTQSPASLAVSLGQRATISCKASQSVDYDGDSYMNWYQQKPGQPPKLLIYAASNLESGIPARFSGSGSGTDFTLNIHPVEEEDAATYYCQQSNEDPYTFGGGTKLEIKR
notes: Mouse monoclonal from hybridoma; Isotype controls used were mouse IgG2a; also called anti-IL2 (NARA1) antibody; monoclonal antibody NARA1
